± gives the standard deviation of the averaged measurements.
tested on: ATP; assay: switch fluorescence ratio, 500 uM ATP over buffer (Cy3 cluster intensity, sum of 5 cycles each) (fold (ratio)); higher = stronger signal-on switching upon ATP binding; sequences stand for … in TCGTCGGCAGCGTCAGATGTGTATAAGAGACAGTTTTTTTTTTTTTTTTTTTTTTTTT…TC; details: aptamer strand: ATP DNA aptamer (quencher-CACCTGGGGGAGTATTGCGGAGGAAGG + anchor), 100 nM annealed; ATP concentration: 500 uM
How it was run: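 For every switch-domain sequence, the fluorescence ratio is the mean of per-cluster values, each being summed target-cycle Cy3 intensity over summed buffer-cycle Cy3 intensity. Clusters outside 100-1000 RFU were excluded. On a modified Illumina MiSeq flow-cell, the Cy3-labelled switching-strand clusters were annealed to 100 nM quencher-labelled ATP aptamer, imaged in selection buffer and then after 15 min with 500 uM ATP at 22 °C. Five such cycles were run, with NaOH stripping and re-annealing between them.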
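Note: ATP exposure 15 min at 22 °C before imaging.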

Sequence | switch fluorescence ratio
TGTCTGCTTT | 0.997 ± 0.043
TGTCTTTTTT | 1.01 ± 0.029
TGTGAAAAAG | 0.976 ± 0.053
TGTGAACTTT | 1.01 ± 0.012
TGTGAAGGGC | 1.02 ± 0.029
TGTGAATGGT | 0.985 ± 0.015
TGTGAGGCTT | 1.03 ± 0.015
TGTGAGGGCG | 1.06 ± 0.015
TGTGATAGGG | 0.978 ± 0.06
TGTGATAGGT | 1 ± 0.028
TGTGATGGAG | 0.979 ± 0.033
TGTGATGGGT | 0.996 ± 0.04
TGTGATTTCG | 0.945 ± 0.048
TGTGCGGGGT | 0.974 ± 0.012
TGTGCTAAGT | 0.985 ± 0.026
TGTGCTTTGT | 1 ± 0.016
TGTGGCAACG | 0.974 ± 0.032
TGTGGCCAGG | 1.04 ± 0.056
TGTGGCGACG | 0.957 ± 0.012
TGTGGCTAGG | 1.02 ± 0.029
TGTGGCTTAA | 0.9668 ± 0.0021
TGTGGGAGCT | 1.04 ± 0.07
TGTGGGAGGT | 0.9573 ± 0.0065
TGTGGGATTG | 0.993 ± 0.015
TGTGGGCTGT | 1.02 ± 0.015

Sequence | switch fluorescence ratio
TGTGGGGAAG | 0.989 ± 0.016
TGTGGGGAAT | 1.04 ± 0.075
TGTGGGGATG | 1.01 ± 0.02
TGTGGGGCAT | 1.15 ± 0.27
TGTGGGGCC | 1.04 ± 0.03
TGTGGGGGGC | 1 ± 0.038
TGTGGGGGGG | 1.01 ± 0.045
TGTGGGGTCT | 1.02 ± 0.038
TGTGGGGTGT | 1.039 ± 0.0096
TGTGGGTTGG | 0.956 ± 0.018
TGTGGGTTTG | 0.958 ± 0.012
TGTGGGTTTT | 1.02 ± 0.056
TGTGGTATAT | 0.993 ± 0.024
TGTGGTCTGA | 1.01 ± 0.09
TGTGGTCTGT | 0.981 ± 0.033
TGTGGTGCAG | 1 ± 0.042
TGTGGTGGC | 0.995 ± 0.019
TGTGGTGGGC | 0.967 ± 0.0012
TGTGGTGTTT | 0.984 ± 0.036
TGTGGTTTTT | 1.01 ± 0.031
TGTGTAAGGG | 1.02 ± 0.029
TGTGTACAGG | 0.978 ± 0.017
TGTGTACCG | 1.01 ± 0.065
TGTGTCACCT | 1.09 ± 0.025
TGTGTGCGGC | 1 ± 0.028

Sequence | switch fluorescence ratio
TGTGTGTGGA | 1.04 ± 0.03
TGTGTGTTTT | 1.01 ± 0.027
TGTGTTCCAA | 1.002 ± 0.0047
TGTGTTGTCA | 1.01 ± 0.011
TGTGTTTACT | 0.991 ± 0.022
TGTGTTTTAG | 0.976 ± 0.015
TGTGTTTTTA | 1.006 ± 0.0016
TGTTAAAAAA | 1.01 ± 0.02
TGTTAAATGA | 0.97 ± 0.013
TGTTAACGGT | 0.991 ± 0.071
TGTTAAGGGG | 1.18 ± 0.21
TGTTACAGAG | 1.01 ± 0.052
TGTTACGGAG | 1.009 ± 0.0042
TGTTACGTTT | 0.992 ± 0.021
TGTTAGAATC | 0.963 ± 0.012
TGTTAGGAAT | 1 ± 0.021
TGTTAGGTAG | 1.01 ± 0.011
TGTTAGTAAT | 1.019 ± 0.0087
TGTTATACAT | 1.01 ± 0.024
TGTTATAGAC | 1.05 ± 0.041
TGTTATATGT | 1.01 ± 0.012
TGTTATTCAT | 0.985 ± 0.041
TGTTATTGTT | 1.03 ± 0.012
TGTTATTTGA | 0.996 ± 0.0056
TGTTCGAGGG | 1.02 ± 0.059

Sequence | switch fluorescence ratio
TGTTGAATTT | 0.958 ± 0.016
TGTTGAGCTC | 0.9936 ± 0.0084
TGTTGCAATT | 1.01 ± 0.052
TGTTGCATAA | 0.968 ± 0.016
TGTTGCGCTA | 1.02 ± 0.029
TGTTGCGTTG | 0.954 ± 0.039
TGTTGCTCCA | 1.05 ± 0.082
TGTTGCTGGG | 1 ± 0.026
TGTTGGCAGG | 1.02 ± 0.012
TGTTGGGAAC | 1.07 ± 0.12
TGTTGGGATT | 0.998 ± 0.016
TGTTGGGGCT | 0.999 ± 0.04
TGTTGGTATG | 0.976 ± 0.038
TGTTGGTGGT | 0.988 ± 0.036
TGTTGTAAGT | 0.984 ± 0.026
TGTTGTAGAA | 0.973 ± 0.013
TGTTGTAGTC | 0.965 ± 0.017
TGTTGTGGTC | 0.9804 ± 0.0042
TGTTGTGTTT | 0.989 ± 0.033
TGTTGTTACC | 1.04 ± 0.022
TGTTTAAGGG | 1 ± 0.021
TGTTTATCAT | 0.978 ± 0.017
TGTTTATTTT | 0.982 ± 0.025
TGTTTCATTC | 0.978 ± 0.012
TGTTTCCCGT | 1 ± 0.022

Sequence | switch fluorescence ratio
TGTTTCTACG | 1 ± 0.056
TGTTTGACGA | 0.991 ± 0.05
TGTTTGAGAT | 1.01 ± 0.015
TGTTTGAGGC | 0.997 ± 0.044
TGTTTGATAT | 0.9917 ± 0.005
TGTTTGGGCC | 1.03 ± 0.011
TGTTTGGTGT | 0.9948 ± 0.005
TGTTTGTGTT | 0.977 ± 0.013
TGTTTGTTAG | 1.04 ± 0.048
TGTTTTAAGT | 0.999 ± 0.036
TGTTTTAATT | 0.99 ± 0.021
TGTTTTACGA | 1.07 ± 0.043
TGTTTTAGGA | 0.993 ± 0.015
TGTTTTGCGG | 0.9696 ± 0.0063
TGTTTTGGAG | 1 ± 0.032
TGTTTTGGGC | 0.992 ± 0.033
TGTTTTGTGT | 1.035 ± 0.0073
TGTTTTGTTT | 0.995 ± 0.013
TGTTTTTAAA | 0.979 ± 0.029
TGTTTTTAAG | 0.99 ± 0.022
TGTTTTTAGC | 1.0151 ± 0.00055
TGTTTTTGGC | 1 ± 0.025
TGTTTTTTGA | 0.99 ± 0.011
TTAAAAAAAG | 1.01 ± 0.019
TTAAAAAGG | 1.02 ± 0.037

Sequence | switch fluorescence ratio
TTAAAAAGTT | 1 ± 0.031
TTAAAAATTG | 0.957 ± 0.016
TTAAAACCGT | 1.02 ± 0.029
TTAAAACGAA | 1.01 ± 0.024
TTAAAACGGG | 0.969 ± 0.037
TTAAAATATC | 0.99948 ± 0.00018
TTAAAATTAT | 0.996 ± 0.023
TTAAACAAGC | 0.998 ± 0.017
TTAAACCTGG | 1.08 ± 0.032
TTAAACTGGT | 1.04 ± 0.034
TTAAACTTTT | 1.04 ± 0.031
TTAAAGACCT | 1.45 ± 0.042
TTAAAGCTGG | 0.978 ± 0.017
TTAAAGCTGT | 1.02 ± 0.063
TTAAAGCTTT | 1.09 ± 0.22
TTAAAGGATC | 0.968 ± 0.028
TTAAAGGGCT | 0.982 ± 0.044
TTAAAGTCTC | 0.946 ± 0.021
TTAAATAAGT | 1 ± 0.025
TTAAATAATA | 1.09 ± 0.16
TTAAATACGT | 1.06 ± 0.049
TTAAATGAAA | 1.02 ± 0.013
TTAAATGGTT | 0.9783 ± 0.0076
TTAACCGATA | 1.04 ± 0.031
TTAACGAGTG | 0.999 ± 0.022

Sequence | switch fluorescence ratio
TTAACGATGA | 1.01 ± 0.044
TTAACGGAGA | 1.039 ± 0.0084
TTAACGGTAA | 1.09 ± 0.042
TTAACTACCG | 1.042 ± 0.0084
TTAACTCGAC | 1.07 ± 0.038
TTAAGAACAC | 1.04 ± 0.037
TTAAGAATTA | 1.03 ± 0.047
TTAAGACTTC | 1.02 ± 0.041
TTAAGAGGTT | 0.9708 ± 0.0065
TTAAGATAGT | 1.02 ± 0.028
TTAAGATTTC | 1.13 ± 0.14
TTAAGCATAG | 1.69 ± 0.91
TTAAGCCTGG | 0.962 ± 0.022
TTAAGCGTTT | 0.9948 ± 0.009
TTAAGCTGGC | 1.05 ± 0.056
TTAAGGACTC | 1.1 ± 0.042
TTAAGGCCAT | 1.08 ± 0.13
TTAAGGCCCG | 1.01 ± 0.012
TTAAGGCGGG | 1 ± 0.05
TTAAGGGATA | 1.03 ± 0.082
TTAAGGGCTC | 1 ± 0.013
TTAAGGGGGC | 0.969 ± 0.042
TTAAGGTTAT | 1.02 ± 0.032
TTAAGTAATA | 1.02 ± 0.014
TTAAGTAGTG | 0.98 ± 0.014

Sequence | switch fluorescence ratio
TTAAGTATGT | 1.08 ± 0.089
TTAAGTCTAT | 0.9889 ± 0.0078
TTAAGTGGGC | 1.12 ± 0.17
TTAAGTTATA | 1.018 ± 0.0099
TTAAGTTATT | 1.03 ± 0.056
TTAAGTTGGG | 0.989 ± 0.038
TTAATAAATT | 1.03 ± 0.018
TTAATAGCGT | 0.999 ± 0.029
TTAATAGGCC | 0.974 ± 0.036
TTAATAGTTA | 0.992 ± 0.028
TTAATATAAG | 1.02 ± 0.021
TTAATCGCTC | 1.02 ± 0.021
TTAATCGGGG | 1.05 ± 0.077
TTAATCGTAG | 0.991 ± 0.013
TTAATCTGTA | 0.99 ± 0.068
TTAATGAATT | 0.994 ± 0.014
TTAATGATTT | 1 ± 0.034
TTAATGGAGG | 1.04 ± 0.017
TTAATGTCCT | 1 ± 0.02
TTAATTAAAG | 0.993 ± 0.017
TTAATTCATT | 1.01 ± 0.016
TTAATTGCGA | 0.9861 ± 0.0048
TTAATTGCTT | 1.01 ± 0.043
TTAATTTATT | 0.987 ± 0.035
TTAATTTTCG | 1.04 ± 0.066
